# Reference: the supplement of paper PMC10567573
# B1: TOR1AIP2 (parent)
# chain: YTSSQKVSPIQIDGAGRTWQDSDT
# B2: ISL2 (parent)
# chain: HYPFLGAMGDHSKKKPGTAMCVGC
# Variants of: B1
# Test: protein stability index of a GFP-peptide fusion (GPS, HEK-293T) (PSI 1-6); higher = more stable
# Settings: c terminus: a fixed tail appended
# 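Note: lentivirally expressed fusions sorted by FACS into six bins by GFP to DsRed ratio, PSI derived from sequencing read proportions per bin multiplied by bin number.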
row,Variant,protein stability index
1,S8A,3.52
2,S8C,3.12
3,S8D,2.9
4,S8E,4.47
5,S8F,2.75
6,S8G,3.25
7,S8H,2.57
8,S8I,2.35
9,S8K,3.46
10,S8L,2.82
11,S8M,3.06
12,S8N,4
13,S8P,3.1
14,S8Q,3.17
15,S8R,2.67
16,S8T,3.36
17,S8V,2.67
18,S8W,3.33
19,S8Y,2.16
20,P9A,3.34
21,P9C,3.02
22,P9D,3.94
23,P9E,4.28
24,P9F,2.05

row,Variant,protein stability index
1,P9G,3.45
2,P9H,3.22
3,P9I,2.69
4,P9K,3.71
5,P9L,3.74
6,P9M,3.12
7,P9N,3.49
8,P9Q,3.44
9,P9R,3.37
10,P9S,4.38
11,P9T,3.98
12,P9V,2.66
13,P9Y,2.22
14,I10A,3.77
15,I10C,3.25
16,I10D,4.32
17,I10E,4.58
18,I10F,1.85
19,I10G,3.85
20,I10H,3.5
21,I10K,3.33
22,I10L,3.52
23,I10M,3.44
24,I10N,4.2

row,Variant,protein stability index
1,I10P,4.18
2,I10Q,4
3,I10R,3.76
4,I10S,3.93
5,I10T,3.96
6,I10V,4.1
7,I10W,2.4
8,I10Y,1.57
9,Q11A,2.96
10,Q11C,2.47
11,Q11D,3.96
12,Q11E,3.81
13,Q11F,2.06
14,Q11G,2.06
15,Q11H,3.67
16,Q11I,2.72
17,Q11K,3.95
18,Q11L,2.8
19,Q11M,3.16
20,Q11N,3.4
21,Q11P,3.93
22,Q11R,3.11
23,Q11S,3.73
24,Q11T,3.56

row,Variant,protein stability index
1,Q11V,2.84
2,Q11W,5.21
3,Q11Y,2.2
4,I12A,3.68
5,I12C,2.7
6,I12D,4.12
7,I12E,5
8,I12F,3.24
9,I12G,4.59
10,I12H,4.21
11,I12K,3.76
12,I12L,3.29
13,I12M,3.5
14,I12N,3.65
15,I12P,3.99
16,I12Q,4.03
17,I12R,3.63
18,I12S,3.08
19,I12T,3.65
20,I12V,2.97
21,I12W,2.55
22,I12Y,3.19
23,D13A,3.2
24,D13C,2.79

row,Variant,protein stability index
1,D13E,3.33
2,D13F,1.67
3,D13G,3.07
4,D13H,2.64
5,D13I,2.35
6,D13K,2.77
7,D13L,2.29
8,D13M,2.21
9,D13N,3.15
10,D13P,2.87
11,D13Q,3.27
12,D13R,2.36
13,D13S,2.86
14,D13T,2.87
15,D13V,2.39
16,D13W,1.54
17,D13Y,1.96
18,G14A,3.37
19,G14C,4.45
20,G14D,3.46
21,G14E,3.94
22,G14F,2.83
23,G14H,3
24,G14I,2.5

row,Variant,protein stability index
1,G14L,2.99
2,G14M,2.77
3,G14N,3.5
4,G14P,3.28
5,G14Q,3.57
6,G14R,1.95
7,G14S,3.51
8,G14T,3.38
9,G14V,2.78
10,G14W,3.16
11,G14Y,2.78
12,A15C,3.03
13,A15D,3.85
14,A15E,3.52
15,A15F,2.45
16,A15G,3.04
17,A15H,2.6
18,A15I,3.25
19,A15K,2.73
20,A15L,2.93
21,A15N,3.71
22,A15P,2.99
23,A15Q,3.35
24,A15R,2.56

row,Variant,protein stability index
1,A15S,2.95
2,A15T,3.36
3,A15V,2.82
4,A15W,1.67
5,A15Y,2.91
6,G16A,3.07
7,G16C,2.99
8,G16D,4.01
9,G16E,3.32
10,G16F,2.3
11,G16H,3.41
12,G16I,2.54
13,G16K,3.33
14,G16L,3.07
15,G16M,3.65
16,G16N,1.93
17,G16P,3.24
18,G16Q,2.97
19,G16R,3.19
20,G16S,2.9
21,G16T,2.7
22,G16V,3
23,G16W,1.61
24,G16Y,2.89

row,Variant,protein stability index
1,R17A,3.66
2,R17C,3.66
3,R17D,4.16
4,R17E,4.4
5,R17F,2.33
6,R17G,3.63
7,R17H,2.24
8,R17I,3.59
9,R17K,3.54
10,R17L,3.21
11,R17M,2.18
12,R17N,3.02
13,R17P,4.25
14,R17Q,3.79
15,R17S,3.96
16,R17T,3.6
17,R17V,3.64
18,R17W,2.32
19,R17Y,3.02
20,T18A,3.01
21,T18C,2.9
22,T18D,4.01
23,T18E,3.83
24,T18F,1.33

row,Variant,protein stability index
1,T18G,3.47
2,T18I,2.63
3,T18K,3.33
4,T18L,3
5,T18M,2.42
6,T18N,3.41
7,T18P,3.38
8,T18Q,3.8
9,T18R,3.43
10,T18S,2.87
11,T18V,3.29
12,T18W,2.3
13,T18Y,2.74
14,W19A,3.93
15,W19C,3.88
16,W19D,4.39
17,W19E,4.86
18,W19F,3.92
19,W19G,3.74
20,W19H,4.09
21,W19I,3.96
22,W19K,4.56
23,W19L,4.11
24,W19M,4.34

row,Variant,protein stability index
1,W19N,4.04
2,W19P,4.67
3,W19Q,4.57
4,W19R,4.13
5,W19S,4.76
6,W19T,4.35
7,W19V,4.56
8,W19Y,4.08
9,Q20A,3.43
10,Q20C,3.34
11,Q20D,3.79
12,Q20E,4.31
13,Q20F,2.62
14,Q20G,3.08
15,Q20H,2.71
16,Q20I,2.42
17,Q20K,3.16
18,Q20L,2.58
19,Q20M,2.75
20,Q20N,4.09
21,Q20P,2.69
22,Q20R,2.62
23,Q20S,3.69
24,Q20T,3.03

row,Variant,protein stability index
1,Q20V,3.54
2,Q20W,2.01
3,Q20Y,2.84
4,D21A,2.73
5,D21C,2.85
6,D21E,3.27
7,D21F,2.33
8,D21G,2.62
9,D21H,2.34
10,D21I,2.71
11,D21K,3.46
12,D21L,2.46
13,D21M,2.36
14,D21N,3.29
15,D21P,2.81
16,D21Q,2.45
17,D21R,2.6
18,D21S,2.95
19,D21T,2.62
20,D21V,2.39
21,D21Y,2.43
22,S22A,4.18
23,S22C,3.18
24,S22D,4.55

row,Variant,protein stability index
1,S22E,4.08
2,S22F,2.71
3,S22G,2.74
4,S22H,3.06
5,S22I,3.12
6,S22K,2.95
7,S22L,2.35
8,S22M,2.18
9,S22N,3.55
10,S22P,3.67
11,S22Q,3.64
12,S22R,3.29
13,S22T,3.63
14,S22V,3.17
15,S22W,2.85
16,S22Y,2.51
17,D23A,3.06
18,D23C,2.83
19,D23F,2.04
20,D23G,2.72
21,D23H,2.16
22,D23I,1.44
23,D23K,2.55
24,D23M,2.06

row,Variant,protein stability index
1,D23N,3.41
2,D23P,2.64
3,D23Q,3.41
4,D23R,2.48
5,D23S,2.73
6,D23T,2.17
7,D23W,1.55
8,D23Y,2.81
9,T24A,3.08
10,T24C,3.52
11,T24D,4.12
12,T24E,5
13,T24H,3.51
14,T24K,3.29
15,T24M,2.58
16,T24N,3.15
17,T24P,3.55
18,T24Q,2.63
19,T24R,2.95
20,T24S,3.85
21,T24V,2.86
22,T24W,2.87
23,T24Y,2.17

# Variants of: B2
# Test: as above
# Settings: c terminus: a fixed tail appended
row,Variant,protein stability index
1,H1A,3.6
2,H1C,2.11
3,H1D,3.15
4,H1E,2.05
5,H1F,2.02
6,H1G,2.64
7,H1I,1.95
8,H1K,2.62
9,H1L,2.01
10,H1M,1.82
11,H1N,3.84
12,H1P,2.75
13,H1Q,2.92
14,H1R,2.7
15,H1S,2.58
16,H1T,2.69
17,H1V,2.11
18,H1W,2.59
19,H1Y,1.99
20,Y2A,3.43
21,Y2C,2.53
22,Y2D,4.76
23,Y2E,3.62
